IC50 data for 36 sequences are collected here from the Immune Epitope Database (IEDB).

Assay in all cases: IEDB peptide-MHC binding, cellular MHC/competitive/fluorescence; ≥ and ≤ were set here for values at or beyond the usual limits of such assays
Test [1] addresses HLA-A*02:01.
For test [2], the target named is HLA-A*02:02.
Test [3] has as its target HLA-A*02:03.
Test [4] deals with HLA-A*02:06.
Test [5] has as its target HLA-A*68:02.
Setting [6] is: source organism: Vaccinia virus WR.
Setting [7] is: source organism: Influenza A virus.
Setting [8] is: source organism: Mammarenavirus choriomeningitidis.

pIC50: −log10 of the molar value.

Consider PVDLVKSSFV, for which the pIC50 (as a rule, the negative decadic logarithm of the IC50, by convention in mol/L) was 4.41 in test [1] (setting [6]); 5.18 in test [2] (setting [6]); 5.02 in test [3] (setting [6]); 4.57 in test [4] (setting [6]); 4.97 in test [5] (setting [6]).

With PVETLFGSYI, the pIC50 was not above 4.15 in test [1] (setting [6]); 4.86 in test [2] (setting [6]); 4.93 in test [3] (setting [6]); not above 4.15 in test [4] (setting [6]); 5.15 in test [5] (setting [6]).

Turning to PVIVPDIKL, the pIC50 in test [1] (setting [6]) is 4.28; in test [2] (setting [6]), 4.39; in test [3] (setting [6]), 4.48; in test [4] (setting [6]), 4.29; in test [5] (setting [6]), 4.52.

Turning to QARQMVQAMRA, the pIC50 was not above 4.15 in test [1] (setting [7]); 4.60 in test [2] (setting [7]); not above 4.15 in test [3] (setting [7]); 4.26 in test [4] (setting [7]); 4.70 in test [5] (setting [7]).

Turning to QTGINNVQSL, the pIC50 in test [1] (setting [6]) was 4.32; in test [2] (setting [6]), 4.69; in test [3] (setting [6]), 4.61; in test [4] (setting [6]) it was 4.27; in test [5] (setting [6]), 4.94.

For QTRSKAGLLV, the pIC50 in test [1] (setting [7]) is not above 4.15; in test [2] (setting [7]), not above 4.15; in test [3] (setting [7]), 4.66; in test [4] (setting [7]) it was not above 4.15; in test [5] (setting [7]), 4.29.

RAEIIRMMEGA: the pIC50 in test [1] (setting [7]) is not above 4.15; in test [2] (setting [7]), 4.93; in test [3] (setting [7]), 5.00; in test [4] (setting [7]) it was not above 4.15; in test [5] (setting [7]), 4.26.

Regarding RAVKLYRKL, the pIC50 is 4.27 in test [1] (setting [7]); not above 4.15 in test [2] (setting [7]); 4.30 in test [3] (setting [7]); not above 4.15 in test [4] (setting [7]); not above 4.15 in test [5] (setting [7]).

As to RINLLVQYGA, the pIC50 in test [1] (setting [6]) is 5.04; in test [2] (setting [6]), 4.99; in test [3] (setting [6]) it was 4.81; in test [4] (setting [6]), 5.12; in test [5] (setting [6]) it was 4.68.

As to RISSSLDQT, the pIC50 in test [1] (setting [6]) is 4.20; in test [2] (setting [6]), 5.17; in test [3] (setting [6]) it was 4.89; in test [4] (setting [6]), 4.56; in test [5] (setting [6]), 4.17.

On to RLEVIGLTT, for which the pIC50 in test [1] (setting [6]) was 4.54; in test [2] (setting [6]) it was 4.70; in test [3] (setting [6]) it was 4.86; in test [4] (setting [6]), not above 4.30; in test [5] (setting [6]), 4.88.

For RTWKVLSIMA, the pIC50 in test [1] (setting [6]) is 5.07; in test [2] (setting [6]) it was 4.62; in test [3] (setting [6]), 5.22; in test [4] (setting [6]), 5.24; in test [5] (setting [6]) it was 5.09.

For the sequence RVTKRDESSI, the pIC50 in test [1] (setting [6]) was 4.25; in test [2] (setting [6]) it was 4.91; in test [3] (setting [6]) it was 4.97; in test [4] (setting [6]) it was 4.65; in test [5] (setting [6]) it was 5.06.

SAAFEDLRL: the pIC50 in test [1] (setting [7]) is not above 4.15; in test [2] (setting [7]), 4.81; in test [3] (setting [7]), 5.03; in test [4] (setting [7]) it was 4.51; in test [5] (setting [7]) it was 4.57.

As to SAAFEDLRLL, the pIC50 in test [1] (setting [7]) was 4.37; in test [2] (setting [7]), 4.67; in test [3] (setting [7]) it was 4.87; in test [4] (setting [7]), 4.63; in test [5] (setting [7]), not above 4.15.

As to SADNHPKMI, the pIC50 in test [1] (setting [6]) is 4.84; in test [2] (setting [6]), 5.09; in test [3] (setting [6]), 4.36; in test [4] (setting [6]), not above 4.15; in test [5] (setting [6]) it was not above 4.15.

As to SAEDNYLAKL, the pIC50 in test [1] (setting [6]), in test [2] (setting [6]), in test [3] (setting [6]), in test [4] (setting [6]) and in test [5] (setting [6]) was not above 4.15 in each case.

Take SIENKHQRRL: the pIC50 in test [1] (setting [6]) was not above 4.15; in test [2] (setting [6]), 4.77; in test [3] (setting [6]), 4.68; in test [4] (setting [6]), 4.27; in test [5] (setting [6]), not above 4.15.

In the case of SITPNNLNKI, the pIC50 in test [1] (setting [6]) was not above 4.15; in test [2] (setting [6]), 4.83; in test [3] (setting [6]), not above 4.15; in test [4] (setting [6]), not above 4.15; in test [5] (setting [6]) it was not above 4.15.

As for SNSEDLLKAV, the pIC50 in test [1] (setting [8]) is 5.11; in test [2] (setting [8]), 4.75; in test [3] (setting [8]), 4.82; in test [4] (setting [8]), 5.00; in test [5] (setting [8]), 4.37.

As to STQQNKLVI, the pIC50 is 4.39 in test [1] (setting [6]); 4.28 in test [2] (setting [6]); 4.84 in test [3] (setting [6]); not above 4.15 in test [4] (setting [6]); 4.59 in test [5] (setting [6]).

As for SVDEEGCGPL, the pIC50 in test [1] (setting [6]) is 4.49; in test [2] (setting [6]), 4.83; in test [3] (setting [6]), 4.41; in test [4] (setting [6]), 4.90; in test [5] (setting [6]), 4.45.

As for TATKRIRMA, the pIC50 in test [1] (setting [7]) was 4.47; in test [2] (setting [7]), 4.32; in test [3] (setting [7]) it was 4.62; in test [4] (setting [7]) it was 4.45; in test [5] (setting [7]), not above 4.15.

On to TIDNIVTSLA, for which the pIC50 in test [1] (setting [6]), in test [2] (setting [6]), in test [3] (setting [6]), in test [4] (setting [6]) and in test [5] (setting [6]) was not above 4.15 throughout.

On to TIEDDKIVTM, for which the pIC50 is 4.88 in test [1] (setting [6]); 4.77 in test [2] (setting [6]); 4.76 in test [3] (setting [6]); 4.58 in test [4] (setting [6]); 4.41 in test [5] (setting [6]).

Regarding TIESAKTKI, the negative logarithm of the IC50 (pIC50) in test [1] (setting [6]) was 4.82; in test [2] (setting [6]) it was 4.79; in test [3] (setting [6]), 4.27; in test [4] (setting [6]), 4.29; in test [5] (setting [6]), 4.28.

With TQFNFNGHT, the pIC50 is not above 4.15 in test [1] (setting [6]); 4.36 in test [2] (setting [6]); 4.84 in test [3] (setting [6]); 5.00 in test [4] (setting [6]); 4.28 in test [5] (setting [6]).

On to TQLFKYVPSA, for which the pIC50 in test [1] (setting [6]), in test [2] (setting [6]), in test [3] (setting [6]), in test [4] (setting [6]) and in test [5] (setting [6]) was not above 4.15 throughout.

As to TTELNIVDEI, the pIC50 was 4.44 in test [1] (setting [6]); 4.41 in test [2] (setting [6]); not above 4.15 in test [3] (setting [6]); 4.67 in test [4] (setting [6]); 4.97 in test [5] (setting [6]).

Consider TTENAAYQVL, for which the pIC50 in test [1] (setting [6]) is 5.09; in test [2] (setting [6]), 4.53; in test [3] (setting [6]) it was not above 4.15; in test [4] (setting [6]), not above 4.15; in test [5] (setting [6]), 4.74.

As for TVDHMAII, the pIC50 was not above 4.15 in test [1] (setting [7]); not above 4.15 in test [2] (setting [7]); 4.88 in test [3] (setting [7]); 4.38 in test [4] (setting [7]); 4.40 in test [5] (setting [7]).

Turning to TVDVRNIVT, the pIC50 in test [1] (setting [6]) is 4.98; in test [2] (setting [6]) it was 4.87; in test [3] (setting [6]), 4.88; in test [4] (setting [6]) it was 4.27; in test [5] (setting [6]), 5.22.

Regarding TVIKNNMI, the pIC50 was not above 4.15 in test [1] (setting [7]); 4.44 in test [2] (setting [7]); not above 4.15 in test [3] (setting [7]); 4.17 in test [4] (setting [7]); not above 4.15 in test [5] (setting [7]).

For the sequence TVLGVSIL, the pIC50 in test [1] (setting [7]) is 5.17; in test [2] (setting [7]), 4.62; in test [3] (setting [7]) it was 4.85; in test [4] (setting [7]) it was 5.24; in test [5] (setting [7]), 4.80.

For the sequence TVPSERGL, the pIC50 is 4.28 in test [1] (setting [7]); not above 4.15 in test [2] (setting [7]); not above 4.15 in test [3] (setting [7]); not above 4.15 in test [4] (setting [7]); 4.19 in test [5] (setting [7]).

VAKCCSKTNT: the pIC50 in test [1] (setting [6]) is 4.68; in test [2] (setting [6]), 4.83; in test [3] (setting [6]), 4.66; in test [4] (setting [6]) it was 4.39; in test [5] (setting [6]), not above 4.15.
